{"source": "patent US8114412B2", "about": "“T. cruzi-derived neurotrophic agents and methods of use therefor” (priority 1999, dated 2012)", "molecules": {"B1": {"name": "TS: T. cruzi trans-sialidase purified by immuno-affinity chromatography from supernatants of infected Vero cells (SEQ ID NO:2, SEQ ID NO:34) (protein, listed as Trypanosoma cruzi)", "chain": "MVAIADARYETSSENSLIDTVAKYSVDDGETWETQIAIKNSRVSSVSRVVDPTVIVKGNKLYVLVGSYYSSRSYWSSHGDARDWDILLAVGEVTKSTAGGKITASIKWGSPVSLKKFFPAEMEGMHTNQFLGGAGVAIVASNGNLVYPVQVTNKRKQVFSKIFYSEDDGKTWKFGKGRSDFGCSEPVALEWEGKLIINTRVDWKRRLVYESSDMEKPWVEAVGTVSRVWGPSPKSNQPGSQTSFTAVTIEGMRVMLFTHPLNFKGRCVRDRLNLWLTDNQRIYNVGQVSIGDENSAYSSVLYKDDKLYCLHEINTDEVYSLVFARLVGELRIIKSVLRSWKNWTATCPAFAPLLIQPLRRQRVVVVPLSPRLVLLAFCRQRLPKRMGGSYRCVNASTANAERVRNGLKFAGVGGGALWPVSQQGQNQRYRFANHAFTLVASVTIHEAPRAASPLLGASLDSSGGKKLLGLSYDEKHQWQPIYGSTPVTPTGSWETGKRYHLVLTMANKIGSVYIDGELLEGSGQTVVPDGRTPDISHFYVGGYKRSDMPTISHVTVNNVLLYNRRQLNTEEIRTLFLSQDLIGTEAHMDSSSDSSAHSTPSTPADSSAHSTPSTPVDSSAHSTPSTPADSSAHGTPSTPVDSSAHGTPSTPADSSAHGTPSTPVDSSAHSTPSTPVDSSAHSTPSTPVDSSAHGAPSTPADSSAHGTPSTPVDSSAHGTPSTPADSSAHSTPSTPADSSAHSTPSTPADSSAHSTPSTPVDSSAHGTPSTPADSSAHSTPSTPADSSAHGTPSTPVDSSAHSTPSTPVDSSAHGTPSTPVDSSAHSTPSTPVDSSAHGTPSTPVDSSAHSTPSTPADSSAHSTPSTPADSSAHGTPSTPVDSSAHSTPSTPADSSAHSTPSTPVDSSAHSTPSTPADSSAHGTPSTPVDSSAHGTPSTPADSSAHSTPSTPADSSAHSTPSTPADSSAHSTPSTPVDSSAHSTPSTPADSSAHSTPSTPADSSAHSTPSTPADSSAHSTPSTPVDSSAHSTPSTPADSSAHGTPSTPADSSAHSTPSTPVDSSAHSTPSTPADSSAHGTPSTPADSSAHSTPSTPADSSAHGTPSTPADSSAHSTPSTPAGSSANGTVLILPDGAALSTFSGGGLLLCACALLLHVFFMAVF"}}, "key": {"[1]": {"test_system": "N18 cells", "test": "Neurite outgrowth assay in N18 cells", "type": "cell-based", "conditions": "immobilized proteins coated at 500 μg/ml, 17 hours (FIG. 3A)", "protocol": "FIG. 3A is a graph showing that neurite outgrowth in N18 cells is induced by immobilized laminin (Ln), immobilized TS and immobilized fragments of TS. Proteins were immobilized by incubating plates which contained wells filled with solutions of the proteins (protein concentration was 500 μg/ml) at 4° C. overnight. The protein solutions were removed and the plates were further incubated with 1% BSA at room temperature for one hour. N18 cells were cultured in the coated wells in serum-free RPMI-1640/0.2% BSA for 17 hours, and neurite outgrowth was measured by phase-contrast microscopy. […] Ln, laminin; TS, purified T. cruzi trans-sialidase; 7F, recombinant TS from clone 7F; 19Y, recombinant TS from clone 19Y; TS-F, recombinant fragment consisting of amino acid residues 33-666 of TS (SEQ ID NO:2); TS-CC-47, recombinant fragment consisting of amino acid residues 79-478 of TS (SEQ ID NO:2); TS-Cat-47, recombinant fragment consisting of amino acid residues 79-415 of TS (SEQ ID NO:2); BSA, bovine serum albumin.\n96-well microtiter plates were coated overnight at 4° C. with the TS or peptides or fragments thereof, or with control proteins laminin (Ln) or bovine serum albumin (BSA) at 500 μg/ml. After removing the compounds, the plates were further incubated with 1% BSA for 1 hour at room temperature and immediately used as substratum for PC12 or N18 (Prasad, K. N., Biol Rev Camb Philos Soc, 66:431-451 (1991)) cells in serum-free RPMI/0.2% BSA. Neurite outgrowth was measured using a phase-contrast microscope 17 hours later."}, "[2]": {"test_system": "PC12 cells", "test": "Trophic factor withdrawal-induced apoptosis of PC12 cells (DAPI/TUNEL)", "type": "cell-based, rat", "excerpt": "PC12 cells were obtained from ATCC (Manassas, Va. (Accession No. CRL-1721)) and cultured on collagen-coated dishes in RPMI 1640 supplemented with 10% horse serum and 5% fetal bovine serum (Greene, L. A. and Tishler, A. S., Proc. Natl. Acad. Sci. USA, 73: 2424-2428 (1976)). For differentiation and survival experiments, cells were washed three times in serum-free RPMI/0.2% BSA, plated in the same medium in collagen-coated plastic dishes at 2×10^5/ml, without and with growth factors, TS, recombinant proteins, synthetic peptides, for the time and concentrations indicated in the Figures.\nCell staining with 4,6-diamino-2-phenylindole (DAPI). Cells were fixed with 4% formaldehyde in PBS for 5 minutes, washed with PBS, stained with 10 μg/ml DAPI (Sigma) for 2 minutes, washed with PBS, and visualized under UV light using a fluorescent microscope. About 300-400 cells were examined under the microscope to determine the percentage of apoptotic cells.\nCell DNA nick end labeling (TUNEL) (Gavrieli, Y., et al., J. Cell. Biol. 119: 493-501 (1992)) assay was performed using a kit purchased from Boehringer Mannheim as described by the manufacturer.\nProtection against apoptosis of PC12 cells in serum-free medium containing a test agent (agent N)(e.g., protection induced by TS, TS fragments, NGF or other growth factors), was calculated by the formula: 100%-[(apoptosis(%) of cells kept in RPMI containing test agent N÷apoptosis (%) of cells kept in RPMI)×100%]. Testing the effect of wortmannin (Sigma) and LY294002 (Sigma) in inhibiting the neuroprotection of TS was performed following the protocol described by others (Yao and Cooper, Science, 267:2003-2006 (1995); D'Mello et al., J. Neurosci 17:1548-1560 (1997)). In brief, PC12 cells were switched from growth medium to RPMI without and with TS or various other growth factors. After 24 hr, wortmannin and LY294002 were added to the cultures. After another 24 hrs, cells were examined for apoptosis by the DAPI assay, as above."}, "[3]": {"test_system": "human Schwann cells", "test": "Serum withdrawal-induced apoptosis of immortalized human Schwann cells (DAPI)", "type": "cell-based"}, "[4]": {"test_system": "Akt kinase in PC12 cells", "test": "Immunodetection of activated Akt (Ser 473) in PC12 cells", "type": "cell-based, rat", "protocol": "PC12 cells were deprived of serum for 24-48 hours, stimulated with TS, TS-F or LTR for 2, 5 or 10 minutes and immediately lysed with 2% SDS. In studies using the PI-3 kinase inhibitor, LY294002 (LY), cells were pre-treated with the inhibitor (1 μM) for 30 min prior to the addition of TS-F or TS. The proteins in the cell lysate were separated in SDS-10% polyacrylamide gels, transferred to nitrocellulose membrane (Bio-Rad) and the phosphorylated form of protein kinase Akt was detected with phospho-Akt (Ser 473) antibody (New England BioLabs, Beverly, Mass.), followed by alkaline phosphatase-conjugated secondary antibody (Promega, Madison, Wis.). Bands corresponding to phospho-Akt (60 kDa) were quantified using a scanning densitometer (Bio-Rad)."}, "[5]": {"test_system": "human bladder carcinoma T-24 cell line", "test": "IL-6 secretion by T-24 carcinoma cells (ELISA)", "type": "cell-based", "protocol": "Primary cultures of human intestinal microvascular endothelial cells (HIMEC) isolated from normal jejunal mucosa/submucosal tissue were prepared as described (Strong et al., Gastroenterology 114: 1244-1256 (1998)). The HIMEC were cultured in fibronectin-coated plasticware in MCDB medium (Sigma) supplemented with 20% FBS, 90 μg/ml heparin and 50 μg/ml endothelial cell growth factor (Sigma). T-24 cells (ATCC Accession No. HTB-4) were cultured in M199 medium supplemented with 10% FBS. PBMC were purified by Ficoll-Paque gradient as described (Current Protocols in Immunology, pp 7.1.1-7.1.2). Vero cells (ATCC Accession No. CCL-81) were grown in RPMI medium with 5% Nu serum and infected with the Silvio X-10/4 of T. cruzi as described previously (Chuenkova et al., J. Exp. Med. 181: 1693-1703, (1995)).\nEndothelial cells and T-24 cells were plated on 24-well plates at a density of 1×10^3 cells/well, while peripheral blood mononuclear cells (PBMC) were plated in the similar wells at 1×10^6/well. Triplicat cultures of cells were incubated test agents for a predetermined amount of time. […] Cytokines and chemokines released in the culture supernatants were measured by ELISA assay following the instructions of the manufacturer (Endogen). The cytokines tested were IL-1β, IL-4, IL-8, IL-10, IL-12, IFN-γ, TNF-α, and the chemokines RANTES and MCP-1. Negative controls were cells incubated in medium containing polymixin B at 10 μg/ml, and positive controls were cells incubated with bacterial LPS at the low ng/ml range (for PBMC or HIMEC) or in the μg/ml range for carcinoma T-24 cells. In some experiments, IL-1β, or TNFα were used as positive control for cytokine release."}}, "note": "“Also recorded” adds a separate entry of the source.", "data": [{"molecule": "B1", "values": [{"measurement": "neurite outgrowth in N18 cells", "setting": "[1]", "result": "induced neurite outgrowth"}, {"measurement": "PC12 cells protected from death", "setting": "[2]; TS 62 pM (equivalent to 12.5 ng/ml)", "result": 45, "unit": "%"}, {"measurement": "survival of PC12 cells grown in serum-free medium", "setting": "[2]; TS 2.5 ng/ml alone or with CNTF 50 ng/ml or LIF 0.5 ng/ml", "result": 13, "unit": "%"}, {"measurement": "PC12 cells protected from apoptotic death", "setting": "[2]; TS 2.5 ng/ml, NGF 0.5 ng/ml, alone or co-administered at the same concentrations", "result": 15, "unit": "%"}, {"measurement": "potency relative to NGF in preventing apoptosis", "setting": "[2]; molar basis", "result": "more potent on a molar basis; also recorded: at concentrations lower than those required by nerve growth factor; also recorded: more effective on a molar base"}, {"measurement": "protection of PC12 cells from apoptosis induced by trophic factor withdrawal", "setting": "[2]; serum-free RPMI-1640/0.2% BSA, 17 hours, DAPI or TUNEL", "result": "effectively protected; also recorded: inhibits trophic factor withdrawal-induced apoptosis; also recorded: protects PC12 cells from apoptosis induced by trophic factor withdrawal in a dose dependent manner; also recorded: protected PC12 cells from apoptosis"}, {"measurement": "duration of protection of PC12 cells by a single dose", "setting": "[2]; time course, TS 0.5 nM (FIG. 5B)", "result": "up to several days; also recorded: delayed trophic factor withdrawal-induced apoptotic death"}, {"measurement": "dose showing efficacy as trophic factor for Schwann cells", "setting": "[3]", "result": "≥ 0.5", "unit": "nM"}, {"measurement": "inhibition of serum withdrawal-induced apoptosis of human Schwann cells", "setting": "[3]; serum-free DMEM, 24-72 hours, DAPI", "result": "effectively inhibited; also recorded: dose-dependent inhibition"}, {"measurement": "phosphorylation/activation of Akt kinase in PC12 cells", "setting": "[4]; 100 ng/ml, 2, 5 or 10 minutes, phospho-Akt (Ser 473) antibody", "result": "becomes activated; also recorded: induces serine phosphorylation of Akt kinase"}, {"measurement": "exposure time after which Akt becomes activated", "setting": "[4]; TS 100 ng/ml", "result": "2 to 5", "unit": "min"}, {"measurement": "IL-6 secretion by T-24 cells", "setting": "[5]; 24 hours culture", "result": "stimulated IL-6 secretion"}, {"measurement": "bacterial LPS concentration inducing the same IL-6 in T-24 cells", "setting": "[5]; TS 1 μg/ml, 24 hr", "result": 0.75, "unit": "µg/mL"}]}]}
